Test results published in US20080009025A1, “PROTEIN KINASE REGULATION” (priority 1999, published 2008).

Molecular target: PIFtide (24 residue synthetic peptide encompassing the PDK1 binding site on PIF) (human)
Test: method not stated

PIFtide (24 residue synthetic peptide encompassing the PDK1 binding site on PIF) (human), sequence (peptide, as listed by the source): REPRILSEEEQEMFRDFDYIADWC

GST-PDK1[K115A] (from UniProt O15530 1-556) (enzyme)
fold decrease in affinity (against wild type PDK1): 10 fold
